For assay [1], the system named is CHO cells stably transfected with a nGPCR-x expression vector. The assay is described as follows: Intracellular calcium measurement using FLIPR, positive controls. To be noted: A23187 10 μM, ATP 4 μM. The class given is cell-based, Chinese Hamster. Here is the method: Changes in intracellular calcium levels are another recognized indicator of G protein-coupled receptor activity, and such assays can be employed to screen for modulators of nGPCR-x activity. For example, CHO cells stably transfected with a nGPCR-x expression vector are plated at a density of 4×10^4 cells/well in Packard black-walled, 96-well plates specially designed to discriminate fluorescence signals emanating from the various wells on the plate. The cells are incubated for 60 minutes at 37 C. in modified Dulbecco's PBS (D-PBS) containing 36 mg/L pyruvate and 1 g/L glucose with the addition of 1% fetal bovine serum and one of four calcium indicator dyes (Fluo-3™ AM, Fluo-4™ AM, Calcium Green™-1 AM, or Oregon Green™ 488 BAPTA-1 AM), each at a concentration of 4 μM. […]
A calcium response is initiated by the addition of one or more candidate receptor agonist compounds, calcium ionophore A23187 (10 μM; positive control), or ATP (4 μM; positive control). Fluorescence is measured by Molecular Device's FLIPR with an argon laser (excitation at 488 nm). […] Basal fluorescence of cells was measured for 20 seconds prior to addition of candidate agonist, ATP, or A23187, and the basal fluorescence level was subtracted from the response signal. The calcium signal is measured for approximately 200 seconds, taking readings every two seconds. […]
On the technique in general: Calcium assays in cells follow changes in intracellular calcium, usually with a dye or a luminescent sensor.

The target of assay [2] is T1, nGPCR-51 (Homo sapiens, UniProt Q969V1).
T1 construct: expressed in transfected cells
T1 sequence (Q969V1 whole entry): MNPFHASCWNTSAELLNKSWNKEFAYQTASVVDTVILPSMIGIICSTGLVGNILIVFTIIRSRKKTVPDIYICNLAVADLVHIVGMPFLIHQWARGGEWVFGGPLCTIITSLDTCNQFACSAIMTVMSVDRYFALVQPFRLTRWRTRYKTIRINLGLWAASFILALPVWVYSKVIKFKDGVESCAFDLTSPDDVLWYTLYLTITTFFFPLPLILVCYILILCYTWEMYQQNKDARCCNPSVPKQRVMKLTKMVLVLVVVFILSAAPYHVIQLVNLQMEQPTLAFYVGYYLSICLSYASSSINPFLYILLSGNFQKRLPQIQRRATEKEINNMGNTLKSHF
The assay can be described thus: NFkB-Luciferase reporter gene assay, nGPCR-51 (Seq51)-transfected N7 (HOS) cells. The class given is cell-based. The note with it: 5-hr incubation, 2 separate experiments, read-out: EC50, luciferase expression. On the procedure:
nGPCR-51 was transfected in N7 cells, stable HOS (human osteosarcoma) cells expressing NFkB-Luciferase reporter gene Briefly, LipofectAMINE, PLUS reagent, and 4 μg DNA were added to cells in Opti-MEM. After 4 hours, serum-containing medium was added to each plate. Twenty-four hour after transfection the cells were trypsinized and seeded in COSTAR white 96-well plate at a cell density of about 20,000 cells per well. Another 24 hours later the culture medium was replaced with fresh growth medium and Peptide A was added. After 5-hr incubation with Peptide A, the medium was aspirated and 100 μL diluted Steady Glo was added. The plates were gently shake at room temperature for 30 minutes and luminescence determined by TopCount at the SPC mode.
In general terms: Reporter assays use an easily measured gene product as a stand-in for the process of interest.

Assay [3] addresses T1, nGPCR-51. The assay is described as follows: Intracellular calcium measurement using FLIPR, nGPCR-51-transfected HEK293 cells. The class given is cell-based. To be noted: fluo-4, FLIPR, read-out: EC50, calcium mobilization. Here is the method: (§1) HEK293 cells were transiently transfected with an expression vector for nGPCR-51 and empty vector using Lipofectamine plus (Gibco) according to the manufacturer's instructions. The next day, the cells were seeded into 96-well plates at 25,000 cells per well. The following day, cells were loaded with 1 uM Fluo-4-acetoxymethyl fluorescent indicator dye (Molecular Probes) in MEM (minimal essential media) containing 0.1% bovine serum albumin, 0.04% pluronic acid and 2.5 mM probenecid for 30 minutes at 37 C. The cells were washed with pre-warmed (37 C.) assay buffer (Hanks buffer containing 15 mM HEPES, 2.5 mM probenecid and 0.1% bovine serum albumin). Assay buffer (100 ul) was added to each well and plates were incubated at 37 C. for 15 minutes. Various concentrations (0.03 pM-10 nM) of human Peptide A or salmon Peptide B were added and fluorescence produced by fluo-4 (a calcium sensitive dye) was measured every second for 150 seconds on a fluorometric imaging plate reader (FLIPR1; Molecular Devices). Human Peptide A and salmon Peptide B-induced calcium mobilization in nGPCR-51-transfected cells with EC50 values of 3 nM and 6 nM, respectively. Human Peptide A and salmon Peptide B had no effect on vector-transfected cells.

In another assay the test system is vector-transfected cells. The assay can be described thus: Intracellular calcium measurement using FLIPR, empty vector control HEK293 cells. The class given is cell-based, human. The note with it: 0.03 pM-10 nM. Here is the method:
as §1

Assay [4] addresses T2, nGPCR-51 (human (H. sapiens), UniProt Q969V1 1-340).
T2 construct: The functional assays used whole cells
The assay is described as follows: saturation radioligand binding, membranes of COS 7 cells transiently expressing nGPCR-51, filtration. On the procedure: HEK 293 or COS 7 cells transiently expressing nGPCR-51, or CHO K-I cells stable expressing nGPCR-51, were grown to sub-confluence (2 days post-transfection for transients), harvested from flasks in Dulbecco's PBS and pelleted by low speed centrifugation (2500 rpm) for 10 minutes. Cell pellets were homogenized in 10 ml tissue buffer (50 mM Hepes, 10 mM MgCl₂, 2 mM EGTA, 1 μg/ml aprotinin, 1 μg/ml leupeptin hemisulfate, 1 μg/ml pepstatin A, pH 7.0) using a dounce, 10 strokes. Homogenate was centrifuged at 47,000× g for 15 minutes. Membrane pellet was resuspended in 1 ml tissue buffer using the dounce, 10 strokes. An aliquot of the membrane preparation was used to determine protein concentration. For measurement of saturation binding, 10 μg of cell membranes were incubated with various concentrations of [¹²⁵I] Peptide A (iodinated by routine procedures via the Tyr residue) in 300 μl binding assay buffer (tissue buffer plus 0.15 mM Bacitracin and 0.1% ovalbumin) for 90 minutes at room temperature in 96-well plates. Non-specific binding was defined by the inclusion of 1 μM Peptide A. After the binding incubation, plates were harvested onto GF/C filters presoaked in 0.3% non-fat dry milk. […] Filter plates were then counted in a Packard Topcount™ 96-well microplate scintillation counter. Data were analyzed using GraphPad Prism (San Diego, Calif.) and Kd and Bmax values were calculated. […]

Assay [5] deals with T2, nGPCR-51. The assay is described as follows: cell-based or functional assay.

Bridge positions count the residues as written; N and C are the ends. Ends that are not written are not given here. Peptide text beside a SMILES is read from it. * marks the point of attachment. 125I = [125I]*

One may read the EC50 as the midpoint of the concentration-response curve. In general, Kd refers to the equilibrium constant for the complex coming apart.

T2 sequence (Q969V1 whole entry): as above

For the molecule `Nc1ncnc2c1ncn2[C@@H]1O[C@H](COP(=O)(O)OP(=O)(O)OP(=O)(O)O)[C@@H](O)[C@H]1O` [ATP], the “increase of calcium signal above baseline levels” value in assay [1] turned out to be 200%. The same measure, in the same setting: for `CNc1ccc2oc(C[C@H]3O[C@@]4(CC[C@H]3C)O[C@H]([C@H](C)C(=O)c3ccc[nH]3)[C@H](C)C[C@H]4C)nc2c1C(=O)O` [Peptide A23187] the value was 200%.

Turning to `CSCC[C@@H]1NC(=O)[C@@H](NC(=O)[C@H](CCCNC(=N)N)NC(=O)[C@H](CCSC)NC(=O)[C@@H](NC(=O)[C@@H](N)CC(=O)O)[C@@H](C)O)CSSC[C@@H](C(=O)N[C@@H](Cc2c[nH]c3ccccc23)C(=O)N[C@@H](CCC(=O)O)C(=O)N[C@H](C(=O)O)C(C)C)NC(=O)[C@@H]2CCCN2C(=O)[C@H](CCCNC(=N)N)NC(=O)[C@H](Cc2ccc(O)cc2)NC(=O)[C@H](C(C)C)NC(=O)[C@H](CCCNC(=N)N)NC(=O)CNC(=O)[C@H](C(C)C)NC1=O` [salmon Peptide B, Asp Thr Met Arg Cys Met Val Gly Arg Val Tyr Arg Pro Cys Trp Glu Val] (HELM PEPTIDE1{D.T.M.R.C.M.V.G.R.V.Y.R.P.C.W.E.V}$PEPTIDE1,PEPTIDE1,5:R3-14:R3$$$V2.0; N-terminus and C-terminus assumed), the EC50 at nGPCR-51 [2] was about 25 nM; on nGPCR-51 [3], 6 nM. Besides, the “effect on calcium mobilization in vector-transfected cells” value in the assay with vector-transfected cells is listed as “no effect”.

As for DFDMLRCMLGRVY(125I)RPCWQV (disulfide 7-16 (inferred)) [[^125I] Peptide A], the dissociation constant (Kd) with nGPCR-51 [4] came to 0.254 nM. Turning to DFDMLRCMLGRVYRPCWQV (disulfide 7-16 (inferred)) [Peptide A], in the assay with nGPCR-51 [5], the “aequorin luminescence, EC50” value was about 40 nM; the “aequorin luminescence, maximum response” value is 52 fold over baseline; the “calcium mobilization (FLIPR, fluo-4, HEK293 cells), EC50” value was determined as 3 nM. As for DTMRCMVGRVYRPCWEV [Salmon Peptide B], in the assay with nGPCR-51 [5], the “calcium mobilization (FLIPR, fluo-4, HEK293 cells), EC50” value came to 6 nM and the “luciferase expression (NFkB-Luciferase reporter, N7 cells), EC50” value is about 25 nM.

For the origin of these results see patent US20030003451A1, “Novel G protein-coupled receptors” (priority 2000, published 2003).
